Key:
[1] = biological target: MBP-ssTorA signal peptide (Escherichia coli) (UniProt P33225); test: ITC; conditions: cited from earlier work
[2] = biological target: TorA signal peptide 10-26 (Escherichia coli) (UniProt P33225); test: ITC; conditions: cited from earlier work
[3] = biological target: ssTorA-SBP signal peptide (Escherichia coli) (UniProt P33225); test: SPR; conditions: cited from earlier work
[4] = biological target: TorD with N-terminal His-tag (E. coli) (UniProt P36662); test: SPR; quantitative, equilibrium response against pre-protein concentration; His-tagged REMP held on a Ni-NTA chip to 500 RU, 20 µl/min, 25°C, reference surface subtracted; Scatchard plot and Langmuir 1:1 fit; 10 mM HEPES, 150 mM NaCl, 50 µM EDTA, 0.005% P20, pH 7.4

Sequence of TorD (P36662 whole entry): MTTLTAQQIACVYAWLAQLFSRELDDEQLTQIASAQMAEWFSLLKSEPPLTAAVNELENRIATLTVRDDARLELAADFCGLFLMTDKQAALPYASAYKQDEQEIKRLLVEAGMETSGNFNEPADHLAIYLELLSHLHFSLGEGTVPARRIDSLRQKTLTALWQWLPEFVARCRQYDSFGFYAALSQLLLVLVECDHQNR

| Substance | Kd [4] [µM] | further results |
| --- | --- | --- |
| TorD (from UniProt P36662) | – | Kd [1]: 0.059 µM; Kd [2]: 1.7 µM; Kd [3]: 3.8 µM |
| ssTorA(KR)-GFP (domain or fragment) | 2.9 | – |
| ssTorA(KK)-GFP (domain or fragment) | 0.54 | – |
| ssTorA(KKK)-GFP (domain or fragment) | 4.9 | – |
| ssTorA(RK)-GFP (domain or fragment) | 3.6 | – |
| ssTorA-GFP (signal sequence of TorA fused to GFP) (domain or fragment) | 0.33 | stoichiometry N [4]: 1 |
